Reference: PMC3561454

Target: Csk (UniProt P41240)
Assay: p140Cap IP, Csk western blot
Conditions: reference: wild type, sites Y264,Y396

| Substance | binding against the reference | binding against the reference (FBS time course) |
| --- | --- | --- |
| p140Cap (from UniProt Q9C0H9) Y264F/Y396F double mutant | lost |  |
| p140Cap (from UniProt Q9C0H9) Y264F/Y396F double mutant, FBS time course |  | lost |
